The record followed here is patent US20050095615.

For the data set, the target named is His6/LUMIO tag/MBP protein expressed from pET160-GW/MBP [MBP: P0AEX9].

B1: TEV protease (protein)
chain: GESLFKGPRDYNPISSTICHLTNESDGHTTSLYGIGFGPFIITNKHLFRRNNGTLLVQSLHGVFKVKNTTTLQQHLIDGRDMIIIRMPKDFPPFPQKLKFREPQREERICLVTTNFQTKSMSSMVSDTSCTFPSSDGIFWKHWIQTKDGQCGSPLVSTRDGFIVGIHSASNFTNTNNYFTSVPKNFMELLTNQEAQQWVSGWRLNADSVLWGGHKVFMSKPEEPFQPVKEATQLMNELVYSQ
Regarding B1, the “cleavage by TEV protease” value is given as “The TEV protease efficiently cleaves the N-terminal sequences from partially purified protein” and the “digestion with TEV protease analyzed by SDS-PAGE” value was “The results demonstrated that the pET160-DEST vector can encode a functional TEV cleavage site”.
